Results on one molecule are retold here after PMC4385930.

Holding throughout (experiment): ITC
On the technique in general: ITC needs no label: the signal is the heat of the interaction.

Test [1] addresses Bax BH3 BH3 (Homo sapiens), Q07812.
For test [2], the target named is Bak BH3 BH3 (Homo sapiens), Q16611.
For test [3], the target named is Bid BH3 BH3 (Homo sapiens), P55957.

B1: F1L ΔN38ΔC36, P24356 (protein)
chain: YPLPENMVYRFDKSTNILDYLSTERDHVMMAVRYYMSKQRLDDLYRQLPTKTRSYIDIINIYCDKVSNDYNRDMNIMYDMASTKSFTVYDINNEVNTILMDNKGLGVRLATISFITELGRRCMNPVETIKMFTLLSHTICDDYFVDYITDIS
The term Kd denotes a measure of binding affinity in units of concentration. A lower Kd goes with higher affinity. As to B1, the Kd in test [1] was 920 nM; in test [2], 2640 nM; in test [3] it was 3220 nM.
